Values quoted from earlier work as cited in US7776558B2, “Human G protein-coupled receptor and modulators thereof for the treatment of cell death-related disorders” (Arena Pharmaceuticals, Inc., priority 2003, dated 2010).

What was measured:
[1] = target: T1, FPRL2 (Homo sapiens, UniProt P25089); conditions: cited from earlier work
T1 sequence (P25089 1-353): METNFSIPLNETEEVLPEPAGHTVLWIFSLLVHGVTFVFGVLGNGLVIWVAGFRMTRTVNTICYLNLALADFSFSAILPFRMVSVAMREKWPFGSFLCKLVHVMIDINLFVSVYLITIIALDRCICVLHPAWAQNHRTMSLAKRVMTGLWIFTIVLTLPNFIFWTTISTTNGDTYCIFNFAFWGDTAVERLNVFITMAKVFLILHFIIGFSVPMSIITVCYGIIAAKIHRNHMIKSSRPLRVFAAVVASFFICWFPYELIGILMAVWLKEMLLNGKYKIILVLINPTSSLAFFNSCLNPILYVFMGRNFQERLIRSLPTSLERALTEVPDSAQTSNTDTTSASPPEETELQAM

[2] = target: T2, FPRL2 on mature human dendritic cells (Homo sapiens, UniProt P25089); conditions: Yang et al. 2002; cited from earlier work
T2 construct: host or cells: mature human dendritic cells
T2 sequence (P25089 1-353): T1 sequence (P25089 1-353)

| Compound | Ligand status at FPRL2 [1] | Binding to FPRL2 [2] | Intracellular Ca2+ [2] |
| --- | --- | --- | --- |
| CCCCC[C@H](O)/C=C/C=C\C=C\C=C\[C@@H](O)[C@@H](O)CCCC(=O)O [lipoxin A4] | shown not to be ligands for FPRL2 | – | – |
| WKYMVm | – | bind to FPRL2 on mature human dendritic cells | elicit an increase in intracellular Ca^2+ |
